Literature values, collected in patent publication US7754242B2, “Inhalable sustained therapeutic formulations” (Alkermes, Inc., priority 2002, dated 2010).
Read-outs that look alike come from different tables or passages of the source.

What was measured:
[1] = primates; dry powder formulation via pulmonary delivery
[2] = human subjects; dry powder formulation via pulmonary delivery
[3] = healthy volunteers; inhaled

insulin: Insulin given by pulmonary delivery (dry powder formulation, inhaled), literature reports
Time to peak insulin level [1]: about 30 minutes
Time to peak insulin level [2]: about 20 minutes
Time to half-maximal action (glucose infusion rate) [3]: about 30 minutes
